Assay: soluble on expression in E. coli; label from the status in PepcDB or PDB records

| Sequence | soluble on expression in E. coli |
| --- | --- |
| MIISTDLQLLISPMQWDQVASEIAQQLSAVGYNVTDIRAEVIDLTCEPDNMLVNQWQQEHGTIPTSEQLHRVVITGEFDGELRKATECVVRQLPEGSYWYGTSLVGEIEPSVTAACAWQADV | not soluble |
| KGLAIAADYRNAYRVGGDYYDFIPSNYDRIRSQDDPKLVQCVPWSIVIGDVMGKGVPAGLIMTMTRGMLRAEVLNRHSPAKILEHLNRVMYADLDNSHRFVTLFYSEYDPKTRTLSYSNAAHHPPLLWRAQTQNIEPLDTQGMLIGLDLDSSYEDAKVVLEVGDIILYYTDGFTDAVNSHGDRFDEENLVRVFQNACQNCQTPEAIVQELFTQVEKFTYPKVRGGDDMTLVVVQVQSEAIESHLCQHHDC | not soluble |
| MAGDPMITETQLTAIQTYALQKLAHDHSGHGRDHLQRVNRLARRLAKDEGANLNLTLAAAWLHDVIDDKLMANPAKAHQDLIVQLNAQNVTADDQTAIFAIIDHMSFSKSFNGPQKLSLEGQVVQDADRLDAIGAIGIARALYYSGHVGEKIYDPAIAPREHMTREQYRHQPGTAINHFYEKLFKLAALMNTDTAKALAAHRTAVMHEFVDQFKAEWTADDKALEHHHHHH | soluble |
| MKYIIIGLGNYGHVLAEELSTLGHEVIGADLDEGRVDSIKDKIATAFVIDATDEQSLSVLPLNSVDMVIVAIGENFGASIRVVAMLKQKQVKHIYARAIDGVHKAVLEAFGLEKILTPEEDAARSLVQLLDFGTKMETFRVDSEYYVVKFNVPEKFVGYFVNELNLDEEFNLKLIGLKRSNTIKNCLGISLVEHKVVNELPEDAKIRPDDVLVCYGKYSDFQKLWKALLEHHHHHH | soluble |
| SLRECELYVQKHNIQALLKDSIVQLCTARPERPMAFLREYFEKLEKEEAK | soluble |
| MAHHHHHHMVEEVTIGRDFVTVRRVDDDDTAAAVRQYAVRLGGNPTATPEETAERSAALQRKVMDAMEENCEQVKTLSGRNDPNESVDGGGENTEDNLGSQGGVALDSVDEAALRDLVRSTHWSELKLHVSALLTDHLYSGRAHIDADAPHPHPDTIPQDGDSEVVVVLKELISTTIRPQLQADGGDIRFVGLADSVMLVEMLGACRKCRSSKTTLRDMIERTTRHWVPEVQKVEEVER | not soluble |
| MVKSQPILRYILRGIPAIAVAVLLSACSTTTNTAKNMHSETHAVGNSDSSSLQASQDEFENMVRNLDVKSRIMDQYADWKGVRYRLGGSTKKGVDCSSFVQRTFREQFGLELPRSTYEQQEMGKAVSRNNLRTGDLVLFRAGSTGRHVGIYIGNNQFVHASTSSGVIISSMNEPYWKKRYNEARRVLSRS | not soluble |
| MSNIERRHTIMAKGSVRKKGKKWYYRFYVEDASGNLVQKECVGTESKSETEKLLRQAMDDYEKKKFVAKAENLTVGQLLDVWAEEELKTSTLSNGTVENYLGTIRNIKKHPLAERKLKNVTSEHLQSFFDLLSFGGVHPDGKEKKGYSKDYIHSFSAVMQQSFRFAVFPKQYITFNPMQYIKLRYQTDEVDLFSDEDMDGNIQPISREDYERLLAYLQKKNPAAILPIQIAYYAGLRIGEACGLAWQDVNLEEQCLTIRRSIRYDGSKRKYIIGPTKRKKVRVVDFGDTLVEIFRNARKEQLKNRMQYGELYHTNYYKEVKEKNRVYYEYYCLDRTEEVPADYKEISFVCLRPDGCLELPTTLGTVCRKVAKTLEGFEGFHFHQLRHTYTSNLLANGAAPKDVQELLGHSDVSTTMNVYAHSTRDAKRKSVRLLDKVVGND | not soluble |
| SNAMRNKNMSTIYQTSATASAGRNGVVSTEDKLLELNLSYPKEMGGSGTATNPEQLFAVGYAACFSNAILHVAREAKVALKEAPVTATVGIGPNGQGGFALSVALAAHIALEDEQARQLVTVAHQVCPYSNAVRGNIDVQVSVNGLAL | soluble |
| MSAIENIVISMENATERRKHITKQFESKKLSFSFFNAYTYQSINQSINQSINQSINQSINQSINQSINQSNSILHNIEESRILTKGEKGCLISHFLLWNKCVNENFEYLKIFEDDVILGENAEVFLNQNEWLKTRFDFNDIFIIRLETFLQPVKLEKQTKIPPFNSRNFDILKSTHWGTAGYIISQGAAKYVIEYLKNIPSDEIVAVDELIFNKLVDVDNYIVYQLNPAICIQELQANQSKSVLTSGLEKERQKRSKIRKKKTLKQRLTRIKENIIRALNRKKWKEQQRIKEMQGKEIVRFMLEHHHHHH | not soluble |
| MRTLLLAGGLLVLSGCSLLMPTPDPNRAWVDLDTQPDADLAAVEVDDKSWDRTRYFEVDPGTRELTVRYQFTVDPTNIGPVDSPLWRDCQLNLKFKDFSAGQRYRLEAGHIGFRPWAKLYDQDNRELARGREGRCAKV | not soluble |
| MSSNAQAIAGLEDRSAIPPTALKATLDHRLGEAAPSDYAKTLLASADAPTLRHLLGLGDAAVMDTGSGKNLDADLLDGYHGTYYLQWRNLQNTPQTYPPSAHQHASSDIPELASQLDTLVKKTGSLMTGSLQSQGTLIGDALGNGRIPALKIGNDCEFWDNNIPYAATFRSGTSPAIAQLFFGTSNHCYFGTSTKNTSTVIGAKTGLLWIETAGNYYYQQHDTTHVAFYKKNGGHAFFWRRSDSGGSGSTNEVQLMALEDNGNLSVKGTIVSAGGYAQGSSRKLKDIEGPLPYGLAEIEQLTPLIGRYKPSYTPDGRRRLFLEAEQLLDLMPETVNPEGIPFQGAYVPSVNLDQLLPVLVNAIAQLSAKVNALTDAPRHAEKLEHHHHHH | not soluble |
| MGSDKIHHHHHHDDHQGIIPLPPVENAFQEKYPDAKNPVFEIEGNYYVVDFNNGGSETTAWFTDQGIWMMEKIDISFAQLPAAVSTAFKQSFYSNWTVDDTYAINRLNMGIVYKIEAEQSNSEVDLYYSQYGNLIKAVDDEINNDAPIVIPKEVSNLMEITFANAELLDIQQNSLGYELDMIDNQIYKVAQLNKDYRWQSTTWAMSEQEVPQIVMQGFESSAYASDKVQSIYTLLNANGTFYLFKVSHNGQDKTITFDVFGNIV | not soluble |
| MESVSCSAAAVRTGDMESQRDLSLVPERLQRREQERQLEVERRKQKRQNQEVEKENSHFFVATFARERAAVEELLERAESVERLEEAASRLQGLQKLINDSVFFLAAYDLRQGQEALARLQAALAERRRGLQPKKRFAFKTRGKDAASSTKVDAAPGIPPAVESIQDSPLPKKAEGDLGPSWVCGFSNLESQVLEKRASELHQRDVLLTELSNCTVRLYGNPNTLRLTKAHSCKLLCGPVSTSVFLEDCSDCVLAVACQQLRIHSTKDTRIFLQVTSRAIVEDCSGIQFAPYTWSYPEIDKDFESSGLDRSKNNWNDVDDFNWLARDMASPNWSILPEEERNIQWD | soluble |
| GPGSMPERMTAALAARLVASPLKYVLLDIDGVIWCGGHVIDRVPETLQYLRGQGKQIRFLSNNASFSREQLMQSLKAKGIEGVTVEECYNSAYTAALRLRQMLGKADVPGEEPLVHGNVFVIGEQGLHDELQQVLAPGFITYGVELHDAVRAGGYDTDALGSAWRVPCLPPPQKRLVVCNGKACRMVQAGTNSAEKISLSDLNAAAVVVGLDKHFNIVKLAYGSLVLQGPPKDLREESYTPPLFVATNEDPQLPVGRDGTMIPGAGSMVSALCTAVGKRPDAVCGKPHKDMANILFAAEGVTNPREECIMIGDRLTTDVAFGNAAGCQSMLVLSGAEGLADVEEAEKQGRTALVPKYVAESLACFLPL | soluble |
| MGSDKIHHHHHHMDDTTFLSTKEKILEIKPLMESAFGNILGYQELENMLAICTLVPFSNNQILFHQGDRIKGIYIIIKGTVDLIARTLGKGITKIETCLASDFLGETSFLLNEPSATSAVAKDNVTCLFIPSAYFELMPAFSPEAKYKIMKAIGYQACGRLKQLHDKIIDFISHSDMQSLSFLGRVIQTFTQPKIHTLDESGVDKDQIYKKTLFNSFTQDETDELLEHAIPLTANKNCVLIHENETIPVCYIVIYGAVQSNVIQNSKIAKLSVIGPDSLFASTACFLSDTKFSITFITCESATLLKISEAELQYFQKNKPMIWYKLFNLICGSIISLARSLKKLDVRLNIEKYNQ | not soluble |
| MQDYMQHLPHMQEIKSEILNKVLTQVQSYDESQFSAKDVKNALNQTHLSIEHLKALLSSAAEDFIEELAFKSAKVKQKYFGNSISLFTPLYLSNYCNSKCVYCGFQKGNKIARAKLNEAEIHEEMQAIAKSGLEEILMLTGEGREFASVEYIANACKIAREYFKVVGVEIYPMNEDEYKILHEKGCDYVTVFQETYNPLKYSKIHLAGEKRIFPYRFNAQERALKAGMRGVAFAALLGIDDFRKDALATALHAHFLQQAYSHAEISISVPRLRPIINNAKIHPKDVSEKRLLQVLCAYRLFLPFAGITISSRERIGFRDEVIKLGATKMSAGVSVGIGEHKGEKKGDEQFEISDDRSVDEILAMLKRSNLQAVMSDSIYVG | not soluble |
| MAIEHFSTLKQHLSSQIIGQEALVENLLIALLANGHLIVEGPPGLAKTRAVNALAQGLEADFHRIQFTPDLLPADLTGTDIYRPEDGTFVFQPGPLFQNLVLADEINRAPAKVQSALLEAMAEGQITVGRKTYDLPELFLVMATQNPIEQEGTYPLPEAQLDRFLMHIEIGYPDAESELAILKLNRGEALRSNANHGNDSSEKETSTKENSLRTLSQSEIFSAREQVLNIHMAPSLENYIVDLIIATRQPEKYDDKLSTWLAFGASPRATIALDRCARARAWLHNRDFVSPEDIQAVFHNALRHRILLSYQAEAEGITANQVLDYILTQVAVALEHHHHHH | soluble |
| METRKAEGEVIVVGAGLAGLVAAAELADAGRRVLILDQEGEQNLGGQAHWSFGGLFFVDSPEQRRLGIRDSLDLARRDWETAAGFDRPEDHWPRKWAEAYLEFAAGEKREWLHRQGMRWFPAVGWAERGGAGAGLPGNSVPRFHITWGTGPGVLEPFVRRVREHQRAGRIEFRFRHRVRGLTLTAGRVTGVHGDVLEPSDVGRGETSSRVVTGDFELTAQAVLITSGGIGGNHELVRRYWPTERLGPAPEVMLSGVPRHVDGLLQQQVVAQGGSLINPDRMWHYTEGVRNWDPVWPQHGIRILPGPSSLWLDPSGRRLPFPHIPGASSYDTLRHITTHGYPHTWFLLNRAVIKREFGLSGSEQNPDLTGKDLRLTLRRASKHVPGPVQAFMDRGEDFVVRDNLRDLVRGMNELTGGELLDYATVEREVLDRDLQVHNVAGKDAQLAIVRGARAILSERLTRVAKPAPLLDPAQGPLIAVRLSVLTRKSLGGLETDLQGRVIGAGGQPLPDLYAAGEVAGFGGGGYHGYRALEGTFLGGCLFSGRAAGRAIAGAL | not soluble |
| MKICLQAGAVKQIENYFSISTDGVEIRIWFLTDSVVRIRAGFDGDFVEESYSLVTTAWEDRMDMFMKHYRKRIQTAEAQLTDGLEKAVIQGKVLRVEVEKNPFRICVYDAENTQIHADIVDLAYMEDSNNRRIHTSEITEDDCFY | not soluble |
| NFMLTQPHSVSESPGKTVTISCTRSSGSIASYYVQWYQQRPGSSPTTVIYEDSQRPSGVPDRFSGSIDSSSNSASLTISGLKTEDEADYYCQSYDSSNVVFGGGTKLTVLGQPKAAPSVTLFPPSSEELQANKATLVCLISDFYPGAVTVAWKADSSPVKAGVETTTPSKQSNNKYAASSYLSLTPEQWKSHRSYSCQVTHEGSTVEKTVAPTECS | soluble |
| SLLTTCKSVLKLPYLEKIKVVAGEKGLNRIITWVQVVEYPEYSKWLKGGELILISGIAIKNNINSLVNFIRDINSRSLSGIVISIGPYIKEIPKEVIEIGNQLDFPIFEIPFEVKFIDVSQSICKAIFANKVNQESMENFMKDIIFRDFTFSEDILSRAVAYGYNPKTKYISFVVELHNEKDMLECDLKTKQYIEQIVIEVLGEWNKRSIHIMQYNSIILMLPKNEKRTIKNIAMNIIEEIISKAKNTSVNIGVGGEFSELRDFKISVSEAHRCLKVLKLNNDNNTVISYDELGIYKLFFQMDNLEEMKKFYLDVLKKLIDYDSKN | soluble |

— the DeepSol protein solubility set
